Source: paper PMC7432041, “[…], Artificial Tetrameric Lectins: A Tool to Screen Ligand and Pathogen Interactions” (International Journal of Molecular Sciences, 2020)

Tests used:
Assay in all cases: SEC-MALS; SEC-LS (static and dynamic light scattering, refractive index, absorbance at 280 and 550 nm); Shodex KW 802.5 column at 4 °C, 25 mM Tris pH 7.5, 150 mM NaCl, 4 mM CaCl2, 0.5 mL/min; 50 µL injected
[1] = target: DC-SIGNR Fc-CRD (fusion of the DC-SIGNR CRD with human IgG1 Fc) (human)
Cy3-NeutrAvidin = target: T1, Cy3-NeutrAvidin (UniProt P02701 25-152, Cy3 (Cy3-NHS ester, degree of labelling 0.5)); details: both partners purified
T1 construct: NeutrAvidin, a deglycosylated tetrameric protein derived from avidin; subunit MW = 14.5 kDa as printed; Deglycosylated avidin; also called NeutrAvidin-Cy3; tetrameric NeutrAvidin; source: bought: ThermoFisher Scientific; labelled with Cy3-NHS ester

[2] = target: the molecule itself

T1 sequence (P02701 25-152): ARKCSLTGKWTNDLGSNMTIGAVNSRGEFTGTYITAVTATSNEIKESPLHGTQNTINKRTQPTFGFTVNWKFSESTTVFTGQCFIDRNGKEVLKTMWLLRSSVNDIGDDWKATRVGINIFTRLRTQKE

Molecule: DC-SIGNR Fc-CRD (fusion of the DC-SIGNR CRD with human IgG1 Fc) (Fc fusion)
- stoichiometry N [1]: 2

B1: Biotin sortagged DC-SIGNR-CRD (biotin-LPRT-GGG-DC-SIGNR CRD) (domain or fragment, human)
chain: LPRTGGGLCRHCPKDWTFFQGNCYFMSNSQRNWHDSVTACQEVRAQLVVIKTAEEQNFLQLQTSRSNRFSWMGLSDLNQEGTWQWVDGSPLSPSFQRYWNSGEPNNSGNEDCAEFSGSGWNDNRCDVDNYWICKKPAACFRDE
modifications: biotin on the N-terminus (biotin-LPRT peptide joined by sortase A)
notes: sortase A motif of the biotin-LPRT-OMe peptide, transferred onto the N-terminal glycines; poly-Gly extension at the N-terminus of the CRD, exposed after factor Xa cleavage; DC-SIGNR (L-SIGN), human, CRD, amino acids 264 to 399; optimized synthetic gene in pET30-b between XbaI and HindIII; Theoretical mass 16.5 kDa (ESI-MS 16,556); also called biotin-CRD; biotinylated DC-SIGNR CRD; source: …
- stoichiometry N (Cy3-NeutrAvidin): 4 biotin-CRD per NeutrAvidin tetramer (4:4 by chains)

B2: DC-SIGNR ECD (natural extracellular domain of human DC-SIGNR) (domain or fragment, UniProt Q9H2X3 78-399, looked up)
chain: SLSQEQSEQDAIYQNLTQLKAAVGELSEKSKLQEIYQELTQLKAAVGELPEKSKLQEIYQELTRLKAAVGELPEKSKLQEIYQELTRLKAAVGELPEKSKLQEIYQELTRLKAAVGELPEKSKLQEIYQELTELKAAVGELPEKSKLQEIYQELTQLKAAVGELPDQSKQQQIYQELTDLKTAFERLCRHCPKDWTFFQGNCYFMSNSQRNWHDSVTACQEVRAQLVVIKTAEEQNFLQLQTSRSNRFSWMGLSDLNQEGTWQWVDGSPLSPSFQRYWNSGEPNNSGNEDCAEFSGSGWNDNRCDVDNYWICKKPAACFRDE
notes: DC-SIGNR (L-SIGN), human, extracellular domain, amino acids 78 to 399; optimized synthetic gene in pET30-b between NdeI and HindIII; also called natural tetrameric DC-SIGNR ECD; L-SIGN ECD
- stoichiometry N [2]: 4
